Experimental data: article doi:10.1101/2021.07.06.451223 (bioRxiv, 2021)

How the values were obtained:
[1] = target: the molecule itself; assay: crystal structure
[2] = target: the molecule itself; assay: turbidity assay

| Protein | stoichiometry N [1] | binding result [2] |
| --- | --- | --- |
| CASQ1 S248E (amino acids 35-396) (natural protein, human, UniProt P31415 35-396, looked up) QEGLDFPEYDGVDRVINVNAKNYKNVFKKYEVLALLYHEPPEDDKASQRQFEMEELILELAAQVLEDKGVGFGLVDSEKDAAVAKKLGLTEVDSMYVFKGDEVIEYDGEFSADTIVEFLLDVLEDPVELIEGERELQAFENIEDEIKLIGYFKSKDSEHYKAFEDAAEEFHPYIPFFATFDSKVAKKLTLKLNEIDFYEAFMEEPVTIPDKPNEEEEIVNFVEEHRRSTLRKLKPESMYETWEDDMDGIHIVAFAEEADPDGFEFLETLKAVAQDNTENPDLSIIWIDPDDFPLLVPYWEKTFDIDLSAPQIGVVNVTDADSVWMEMDDEEDLPSAEELEDWLEDVLEGEINTEDDDDDDDD | 2 |  |
| CASQ1 S248/369E (amino acids 35-396) (natural protein, human, UniProt P31415 35-396, looked up) QEGLDFPEYDGVDRVINVNAKNYKNVFKKYEVLALLYHEPPEDDKASQRQFEMEELILELAAQVLEDKGVGFGLVDSEKDAAVAKKLGLTEVDSMYVFKGDEVIEYDGEFSADTIVEFLLDVLEDPVELIEGERELQAFENIEDEIKLIGYFKSKDSEHYKAFEDAAEEFHPYIPFFATFDSKVAKKLTLKLNEIDFYEAFMEEPVTIPDKPNEEEEIVNFVEEHRRSTLRKLKPESMYETWEDDMDGIHIVAFAEEADPDGFEFLETLKAVAQDNTENPDLSIIWIDPDDFPLLVPYWEKTFDIDLSAPQIGVVNVTDADSVWMEMDDEEDLPEAEELEDWLEDVLEGEINTEDDDDDDDD |  | binds |
| CASQ1 S369E (amino acids 35-396) (natural protein, human, UniProt P31415 35-396, looked up) QEGLDFPEYDGVDRVINVNAKNYKNVFKKYEVLALLYHEPPEDDKASQRQFEMEELILELAAQVLEDKGVGFGLVDSEKDAAVAKKLGLTEVDSMYVFKGDEVIEYDGEFSADTIVEFLLDVLEDPVELIEGERELQAFENIEDEIKLIGYFKSKDSEHYKAFEDAAEEFHPYIPFFATFDSKVAKKLTLKLNEIDFYEAFMEEPVTIPDKPNSEEEIVNFVEEHRRSTLRKLKPESMYETWEDDMDGIHIVAFAEEADPDGFEFLETLKAVAQDNTENPDLSIIWIDPDDFPLLVPYWEKTFDIDLSAPQIGVVNVTDADSVWMEMDDEEDLPEAEELEDWLEDVLEGEINTEDDDDDDDD |  | binds |
